Biological target: T1, GST-tagged Plk4 (human, UniProt O00444 1-970)
T1 construct: human Plk4, cloned from a cDNA library by PCR into pGEX 4T-1; also called GST-Plk4; source: E. coli BL21, purified (glutathione Sepharose 4B); not shown: GST, N-terminal, kept
T1 sequence (looked up): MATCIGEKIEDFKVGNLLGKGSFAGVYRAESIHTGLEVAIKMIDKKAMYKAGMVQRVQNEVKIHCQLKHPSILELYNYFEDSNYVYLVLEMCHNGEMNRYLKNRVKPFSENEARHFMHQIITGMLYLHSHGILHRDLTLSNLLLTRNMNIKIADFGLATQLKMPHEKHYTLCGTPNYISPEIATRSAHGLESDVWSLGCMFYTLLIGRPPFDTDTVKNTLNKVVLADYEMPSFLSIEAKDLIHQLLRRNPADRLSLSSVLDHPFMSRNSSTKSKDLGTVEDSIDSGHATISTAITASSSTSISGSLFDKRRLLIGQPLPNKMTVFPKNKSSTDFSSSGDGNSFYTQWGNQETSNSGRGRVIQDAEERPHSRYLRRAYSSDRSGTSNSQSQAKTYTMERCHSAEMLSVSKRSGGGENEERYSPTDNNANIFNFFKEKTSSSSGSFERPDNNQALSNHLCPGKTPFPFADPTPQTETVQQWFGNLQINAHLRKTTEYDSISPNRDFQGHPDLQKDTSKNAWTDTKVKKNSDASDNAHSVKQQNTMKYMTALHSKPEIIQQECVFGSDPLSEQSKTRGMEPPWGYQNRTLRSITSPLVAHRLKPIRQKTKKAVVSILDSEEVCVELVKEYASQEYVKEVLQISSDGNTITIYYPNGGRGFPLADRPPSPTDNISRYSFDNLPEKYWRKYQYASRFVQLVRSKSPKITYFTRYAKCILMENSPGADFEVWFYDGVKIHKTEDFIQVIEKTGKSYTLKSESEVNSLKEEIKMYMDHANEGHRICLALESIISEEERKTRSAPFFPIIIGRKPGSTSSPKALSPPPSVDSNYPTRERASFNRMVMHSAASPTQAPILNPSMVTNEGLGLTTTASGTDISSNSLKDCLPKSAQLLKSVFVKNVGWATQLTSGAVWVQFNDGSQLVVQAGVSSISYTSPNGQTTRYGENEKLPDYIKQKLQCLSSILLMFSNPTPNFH
Experiment: pull-down; Sepharose beads coupled with purified GST-Plk4 incubated with purified His-Cdc6; western blot with His antibody
Conditions: both partners purified

B1: His-tagged Cdc6 (purified) (natural protein, human, UniProt Q99741 1-560, looked up)
chain: MPQTRSQAQATISFPKRKLSRALNKAKNSSDAKLEPTNVQTVTCSPRVKALPLSPRKRLGDDNLCNTPHLPPCSPPKQGKKENGPPHSHTLKGRRLVFDNQLTIKSPSKRELAKVHQNKILSSVRKSQEITTNSEQRCPLKKESACVRLFKQEGTCYQQAKLVLNTAVPDRLPAREREMDVIRNFLREHICGKKAGSLYLSGAPGTGKTACLSRILQDLKKELKGFKTIMLNCMSLRTAQAVFPAIAQEICQEEVSRPAGKDMMRKLEKHMTAEKGPMIVLVLDEMDQLDSKGQDVLYTLFEWPWLSNSHLVLIGIANTLDLTDRILPRLQAREKCKPQLLNFPPYTRNQIVTILQDRLNQVSRDQVLDNAAVQFCARKVSAVSGDVRKALDVCRRAIEIVESDVKSQTILKPLSECKSPSEPLIPKRVGLIHISQVISEVDGNRMTLSQEGAQDSFPLQQKILVCSLMLLIRQLKIKEVTLGKLYEAYSKVCRKQQVAAVDQSECLSLSGLLEARGILGLKRNKETRLTKVFFKIEEKEIEHALKDKALIGNILATGLP
notes: human Cdc6; also called His-Cdc6; source: E. coli BL21, purified (His60 Ni Superflow resin)
binding result: binds
